Results reported in the Immune Epitope Database (IEDB).

Legend:
HLA-B*53:01 = assay: IEDB peptide-MHC binding, purified MHC/competitive/radioactivity; filed as Kd, often an IC50 or EC50 that approximates it; ≥ and ≤ were set here for values at or beyond the usual limits of such assays; settings: source organism: Vaccinia virus WR
HLA-B*35:01 = assay: as above; settings: source organism: Vaccinia virus WR
HLA-A*68:02 = assay: as above; settings: source organism: Vaccinia virus WR
HLA-B*51:01 [1] = assay: as above; settings: source organism: Vaccinia virus WR
HLA-A*11:01 [2] = assay: as above; settings: source organism: Vaccinia virus WR
HLA-A*02:01 [3] = assay: as above; settings: source organism: Vaccinia virus WR
HLA-A*03:01 [4] = assay: as above; settings: source organism: Vaccinia virus WR
HLA-A*68:01 = assay: as above; settings: source organism: Vaccinia virus WR
HLA-A*33:01 = assay: as above; settings: source organism: Vaccinia virus WR
HLA-A*02:02 = assay: as above; settings: source organism: Vaccinia virus WR
HLA-A*31:01 [5] = assay: as above; settings: source organism: Vaccinia virus WR
HLA-B*54:01 = assay: as above; settings: source organism: Vaccinia virus WR
HLA-A*02:06 = assay: as above; settings: source organism: Vaccinia virus WR
HLA-A*02:03 = assay: as above; settings: source organism: Vaccinia virus WR
HLA-B*07:02 [6] = assay: as above; settings: source organism: Vaccinia virus WR
HLA-B*44:02 = assay: IEDB peptide-MHC binding, purified MHC/direct/fluorescence; filed as Kd, often an IC50 or EC50 that approximates it; ≥ and ≤ were set here for values at or beyond the usual limits of such assays
HLA-B*08:01 = assay: as above; settings: source organism: Influenza A virus (A/chicken/Hunan/fg/2004(H5N1))
HLA-B*27:05 = assay: as above
HLA-B*58:01 = assay: as above
HLA-A*26:01 [7] = assay: as above
HLA-A*24:02 = assay: as above
HLA-A*11:01 [8] = assay: as above
HLA-A*02:01 [9] = assay: as above
HLA-B*15:01 [10] = assay: as above
HLA-A*03:01 [11] = assay: as above
HLA-A*69:01 [12] = assay: as above
HLA-A*31:01 [13] = assay: as above
HLA-B*07:02 [14] = assay: as above
HLA-B*40:01 = assay: as above
HLA-B*27:03 = assay: IEDB peptide-MHC binding, purified MHC/competitive/fluorescence; filed as Kd, often an IC50 or EC50 that approximates it; ≥ and ≤ were set here for values at or beyond the usual limits of such assays; settings: source organism: Homo sapiens
HLA-B*39:01 = assay: as above; settings: source organism: Homo sapiens
HLA-A*26:01 [15] = assay: as above; settings: source organism: Homo sapiens
HLA-B*51:01 [16] = assay: as above; settings: source organism: Homo sapiens
HLA-B*46:01 [17] = assay: as above; settings: source organism: Homo sapiens
HLA-A*02:01 [18] = assay: as above; settings: source organism: Homo sapiens
HLA-B*15:01 [19] = assay: as above; settings: source organism: Homo sapiens
HLA-A*69:01 [20] = assay: as above; settings: source organism: Homo sapiens
HLA-B*57:01 = assay: as above; settings: source organism: Homo sapiens
HLA-A*01:01 = assay: IEDB peptide-MHC binding, purified MHC/direct/fluorescence; filed as Kd, often an IC50 or EC50 that approximates it; ≥ and ≤ were set here for values at or beyond the usual limits of such assays
HLA-B*18:01 [21] = assay: as above
HLA-B*46:01 [22] = assay: as above
HLA-B*18:01 [23] = assay: IEDB peptide-MHC binding, purified MHC/competitive/fluorescence; filed as Kd, often an IC50 or EC50 that approximates it; ≥ and ≤ were set here for values at or beyond the usual limits of such assays; settings: source organism: Homo sapiens
HLA-B*15:17 = assay: as above; settings: source organism: Homo sapiens
[24] = source organism: Influenza A virus (A/chicken/Hunan/fg/2004(H5N1))
[25] = source organism: Escherichia coli O157:H7
[26] = source organism: Yersinia pestis

CTFMIITSTK
Kd (HLA-B*53:01): 1.91 µM
Kd (HLA-B*35:01): ≥ 64.7 µM
Kd (HLA-A*68:02): ≥ 37.6 µM
Kd (HLA-B*51:01 [1]): 10.3 µM
Kd (HLA-A*11:01 [2]): 1.12 µM
Kd (HLA-A*02:01 [3]): 1.86 µM
Kd (HLA-A*03:01 [4]): 0.459 µM
Kd (HLA-A*68:01): 0.0835 µM
Kd (HLA-A*33:01): 1.22 µM
Kd (HLA-A*02:02): 8.14 µM
Kd (HLA-A*31:01 [5]): 0.169 µM
Kd (HLA-B*54:01): 3.26 µM
Kd (HLA-A*02:06): 13.5 µM
Kd (HLA-A*02:03): 6.79 µM
Kd (HLA-B*07:02 [6]): 3.05 µM

DTVNRTHQY
Kd (HLA-B*44:02; [24]): ≥ 20 µM
Kd (HLA-B*08:01): ≥ 20 µM
Kd (HLA-B*27:05; [24]): ≥ 20 µM
Kd (HLA-B*58:01; [24]): ≥ 20 µM
Kd (HLA-A*26:01 [7]; [24]): 0.0055 µM
Kd (HLA-A*24:02; [24]): ≥ 20 µM
Kd (HLA-A*11:01 [8]; [24]): ≥ 20 µM
Kd (HLA-A*02:01 [9]; [24]): ≥ 20 µM
Kd (HLA-B*15:01 [10]; [24]): ≥ 20 µM
Kd (HLA-A*03:01 [11]; [24]): ≥ 20 µM
Kd (HLA-A*69:01 [12]; [24]): ≥ 20 µM
Kd (HLA-A*31:01 [13]; [24]): ≥ 20 µM
Kd (HLA-B*07:02 [14]; [24]): ≥ 20 µM
Kd (HLA-B*40:01; [24]): ≥ 20 µM

GTEYRLTLY
Kd (HLA-B*27:03): ≥ 20 µM
Kd (HLA-B*39:01): ≥ 20 µM
Kd (HLA-A*26:01 [15]): ≥ 20 µM
Kd (HLA-B*51:01 [16]): ≥ 20 µM
Kd (HLA-B*46:01 [17]): ≥ 20 µM
Kd (HLA-A*02:01 [18]): ≥ 20 µM
Kd (HLA-B*15:01 [19]): ≥ 20 µM
Kd (HLA-A*69:01 [20]): ≥ 20 µM
Kd (HLA-B*57:01): ≥ 20 µM
Kd (HLA-A*01:01; source organism: Canis lupus familiaris): 0.0008 µM

KPKLKVATL
Kd (HLA-B*44:02; [25]): ≥ 20 µM
Kd (HLA-B*27:05; [25]): ≥ 20 µM
Kd (HLA-B*58:01; [25]): ≥ 20 µM
Kd (HLA-A*24:02; [25]): ≥ 20 µM
Kd (HLA-A*11:01 [8]; [25]): ≥ 20 µM
Kd (HLA-A*02:01 [9]; [25]): ≥ 20 µM
Kd (HLA-B*15:01 [10]; [25]): ≥ 20 µM
Kd (HLA-A*03:01 [11]; [25]): ≥ 20 µM
Kd (HLA-A*01:01; [25]): ≥ 20 µM
Kd (HLA-A*69:01 [12]; [25]): ≥ 20 µM
Kd (HLA-B*18:01 [21]; [25]): ≥ 20 µM
Kd (HLA-B*07:02 [14]; [25]): 0.0674 µM
Kd (HLA-B*40:01; [25]): ≥ 20 µM

QMRVRYYGL
Kd (HLA-B*27:05; [25]): ≥ 20 µM
Kd (HLA-B*58:01; [25]): ≥ 20 µM
Kd (HLA-A*24:02; [25]): ≥ 20 µM
Kd (HLA-A*11:01 [8]; [25]): ≥ 20 µM
Kd (HLA-B*46:01 [22]; [25]): ≥ 20 µM
Kd (HLA-A*02:01 [9]; [25]): ≥ 20 µM
Kd (HLA-B*15:01 [10]; [25]): ≥ 20 µM
Kd (HLA-A*03:01 [11]; [25]): ≥ 20 µM
Kd (HLA-A*01:01; [25]): ≥ 20 µM
Kd (HLA-A*69:01 [12]; [25]): ≥ 20 µM
Kd (HLA-B*18:01 [21]; [25]): ≥ 20 µM
Kd (HLA-B*07:02 [14]; [25]): ≥ 20 µM
Kd (HLA-B*40:01; [25]): ≥ 20 µM

RTDNGGWAH
Kd (HLA-B*27:03): ≥ 20 µM
Kd (HLA-B*39:01): ≥ 20 µM
Kd (HLA-A*26:01 [15]): ≥ 20 µM
Kd (HLA-B*51:01 [16]): ≥ 20 µM
Kd (HLA-B*46:01 [17]): ≥ 20 µM
Kd (HLA-A*02:01 [18]): ≥ 20 µM
Kd (HLA-B*15:01 [19]): ≥ 20 µM
Kd (HLA-A*69:01 [20]): ≥ 20 µM
Kd (HLA-B*57:01): ≥ 20 µM
Kd (HLA-B*18:01 [23]): ≥ 20 µM
Kd (HLA-B*15:17): ≥ 20 µM
Kd (HLA-A*01:01; source organism: Homo sapiens): 0.0631 µM

RVFNGDDVK
Kd (HLA-B*44:02; [26]): ≥ 20 µM
Kd (HLA-B*27:05; [26]): ≥ 20 µM
Kd (HLA-B*58:01; [26]): ≥ 20 µM
Kd (HLA-A*26:01 [7]; source organism: Yersinia pestis CA88-4125): ≥ 20 µM
Kd (HLA-A*24:02; [26]): ≥ 20 µM
Kd (HLA-A*11:01 [8]; [26]): 0.251 µM
Kd (HLA-B*46:01 [22]; [26]): ≥ 20 µM
Kd (HLA-A*02:01 [9]; [26]): ≥ 20 µM
Kd (HLA-B*15:01 [10]; [26]): ≥ 20 µM
Kd (HLA-A*03:01 [11]; [26]): 1.39 µM
Kd (HLA-A*01:01; [26]): ≥ 20 µM
Kd (HLA-A*69:01 [12]; [26]): ≥ 20 µM
Kd (HLA-A*31:01 [13]; [26]): 4.2 µM
Kd (HLA-B*18:01 [21]; [26]): ≥ 20 µM
Kd (HLA-B*07:02 [14]; [26]): ≥ 20 µM
Kd (HLA-B*40:01; [26]): ≥ 20 µM

STCYVFGLY
Kd (HLA-B*53:01): 9.93 µM
Kd (HLA-B*35:01): ≥ 38.2 µM
Kd (HLA-A*68:02): 1.38 µM
Kd (HLA-B*51:01 [1]): ≥ 73.3 µM
Kd (HLA-A*11:01 [2]): 0.00786 µM
Kd (HLA-A*02:01 [3]): 4.16 µM
Kd (HLA-A*02:02): 13.4 µM
Kd (HLA-B*54:01): 10.7 µM
Kd (HLA-A*02:06): 6.14 µM
Kd (HLA-A*02:03): ≥ 10 µM
Kd (HLA-B*07:02 [6]): ≥ 77.5 µM
